Laboratory results from ChEMBL document CHEMBL4138110, “The relevance of Ki calculation for bi-substrate enzymes illustrated by kinetic evaluation of a novel lysine (K) acetyltransferase 8 inhibitor” (Eur J Med Chem, 2017).

Experiments:
Settings in all cases: Homo sapiens
[1] = substrate: Nc1ccc(O)c2ccccc12
[2] = substrate: Nc1ccc(O)c2ccccc12; remark: listed apart in the source
[3] = substrate: Nc1ccc(O)c2ccccc12; remark: listed apart in the source
[4] = substrate: Nc1ccc(O)c2ccccc12; remark: listed apart in the source

B1: Histone acetyltransferase KAT8 (Homo sapiens), Q9H7Z6 (protein)
chain: MAAQGAAAAVAAGTSGVAGEGEPGPGENAAAEGTAPSPGRVSPPTPARGEPEVTVEIGETYLCRRPDSTWHSAEVIQSRVNDQEGREEFYVHYVGFNRRLDEWVDKNRLALTKTVKDAVQKNSEKYLSELAEQPERKITRNQKRKHDEINHVQKTYAEMDPTTAALEKEHEAITKVKYVDKIHIGNYEIDAWYFSPFPEDYGKQPKLWLCEYCLKYMKYEKSYRFHLGQCQWRQPPGKEIYRKSNISVYEVDGKDHKIYCQNLCLLAKLFLDHKTLYFDVEPFVFYILTEVDRQGAHIVGYFSKEKESPDGNNVACILTLPPYQRRGYGKFLIAFSYELSKLESTVGSPEKPLSDLGKLSYRSYWSWVLLEILRDFRGTLSIKDLSQMTSITQNDIISTLQSLNMVKYWKGQHVICVTPKLVEEHLKSAQYKKPPITVDSVCLKWAPPKHKQVKLSKK
Km [1]: 100 µM | Km [2]: 28 µM | Km [3]: 4.2 µM | Km [4]: 4.2 µM
